Experimental data from US20170037136A1 (Janssen / Centocor, published 2017).

T1: shCD154-his (soluble human CD154, His6 fusion) (human, UniProt P29965 113-261)
T1 construct: predominantly trimer
T1 sequence: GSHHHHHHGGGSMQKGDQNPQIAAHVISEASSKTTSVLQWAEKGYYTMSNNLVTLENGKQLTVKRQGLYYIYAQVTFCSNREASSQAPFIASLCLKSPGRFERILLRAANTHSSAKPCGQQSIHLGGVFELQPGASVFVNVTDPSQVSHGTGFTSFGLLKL

T2: human CD154 endogenously expressed on D1.1 Jurkat cells (human, UniProt P29965 1-261)
T2 sequence: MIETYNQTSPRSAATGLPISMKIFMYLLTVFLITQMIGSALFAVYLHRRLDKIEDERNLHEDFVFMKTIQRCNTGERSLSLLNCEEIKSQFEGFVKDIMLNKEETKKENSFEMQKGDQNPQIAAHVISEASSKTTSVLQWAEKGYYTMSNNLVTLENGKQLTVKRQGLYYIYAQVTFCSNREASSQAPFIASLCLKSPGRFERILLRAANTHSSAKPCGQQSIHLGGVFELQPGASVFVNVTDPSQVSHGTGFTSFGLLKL


What was measured:
[1] = target: T1, shCD154-his (soluble human CD154, His6 …); assay: SPR (ProteOn XPR36), antibody captured via anti-human IgG Fc, shCD154-his analyte, 25 C, 1:1 Langmuir model
Experimental: (§1) Affinity measurements using Surface Plasmon Resonance (SPR) were performed using a ProteOn XPR36 system (BioRad). […] Approximately 4700 RU (response units) of test antibodies were immobilized. The kinetic experiments were performed at 25° C. in running buffer (DPBS+0.03% polysorbate P20+100 μg/ml BSA). […] The association phase was monitored for 3 minutes at 50 μL/min followed by 15 minutes of buffer flow (dissociation phase). The chip surface was regenerated with two 18 second pulses of 100 mM H₃PO₄ (Sigma, Cat#7961) at 100 μL/min.
(§2) The collected data were processed using ProteOn Manager software. First, the data was corrected for background using inter-spots. Then, double reference subtraction of the data was performed by using the buffer injection for analyte injections. The kinetic analysis of the data was performed using a Langmuir 1:1 binding model.
(§3) Affinity measurements were done using ProteOn as described in Example 1.

[2] = target: T1, shCD154-his (soluble human CD154, His6 …); assay: cell-based or functional assay
[3] = target: T1, shCD154-his (soluble human CD154, His6 …); assay: SPR (ProteOn XPR36) as in Example 1, human CD154; mean ± SD, n = 4
Experimental: as §1, §2

[4] = target: T1, shCD154-his (soluble human CD154, His6 …); assay: SPR (ProteOn XPR36), protocols of Example 1; analyte not given
Experimental: as §1, §2

[5] = target: T3, shCD154-ILZ (soluble human CD154, leucine zipper fusion) (human); assay: cell-based or functional assay
[6] = target: T2, human CD154 endogenously expressed on …; assay: cell-based or functional assay
[7] = target: T1, shCD154-his (soluble human CD154, His6 …); assay: SPR (ProteOn XPR36), antibody captured via anti-human IgG Fc, shCD154-his analyte, 25 C, two-states binding model
Experimental: as §1, §3

[8] = target: T3, shCD154-ILZ (soluble human CD154, …); assay: cell-based or functional assay; remark: listed apart in the source

| Binder | Kd [1] | koff [1] | kon [1] | NF-κB SEAP reporter gene assay; IC50 (nM); shCD154-ILZ [5] | NF-κB SEAP reporter gene assay; IC50 (nM); D1.1 Jurkat [6] | other results |
| --- | --- | --- | --- | --- | --- | --- |
| C4LB89 (antibody, human IgG2, kappa, IgG2sigma/kappa; also called VH C4LH165; VL C4LL49) heavy: QVQLVQSGAEVKKPGSSVKVSCKASGGTFSSYGISWVRQAPGQGLEWMGWISPIFGNTNYAQKFQGRVTITADESTSTAYMELSSLRSEDTAVYYCARSRYYGDLDYWGQGTLVTVSSASTKGPSVFPLAPCSRSTSESTAALGCLVKDYFPEPVTVSWNSGALTSGVHTFPAVLQSSGLYSLSSVVTVPSSNFGTQTYTCNVDHKPSNTKVDKTVERKCCVECPPCPAPPAAASSVFLFPPKPKDTLMISRTPEVTCVVVDVSAEDPEVQFNWYVDGVEVHNAKTKPREEQFNSTFRVVSVLTVLHQDWLNGKEYKCKVSNKGLPSSIEKTISKTKGQPREPQVYTLPPSREEMTKNQVSLTCLVKGFYPSDIAVEWESNGQPENNYKTTPPMLDSDGSFFLYSKLTVDKSRWQQGNVFSCSVMHEALHNHYTQKSLSLSPGK light: not shown | 0.235 nM | 0.00038 s⁻¹ | 1.61e+06 M⁻¹ s⁻¹ |  |  | NF-κB SEAP reporter gene assay; IC50 [2]: 6.22 nM |
| C4LB237 (antibody, V domains shown, C4LB89 variable regions cloned as wild-type IgG1/kappa; also called C4LBB237) VH: QVQLVQSGAEVKKPGSSVKVSCKASGGTFSSYGISWVRQAPGQGLEWMGWISPIFGNTNYAQKFQGRVTITADESTSTAYMELSSLRSEDTAVYYCARSRYYGDLDYWGQGTLVTVSS VL: DIQMTQSPSSLSASVGDRVTITCRASQSISSYLNWYQQKPGKAPKLLIYYANSLQSGVPSRFSGSGSGTDFTLTISSLQPEDFATYYCQQSDSIPWTFGQGTKVEIK |  |  |  |  |  | NF-κB SEAP reporter gene assay; IC50 [2]: 2.56 nM; Kd [3]: 0.0236 nM; koff [3]: 6.05e-05 s⁻¹; kon [3]: 2.59e+06 M⁻¹ s⁻¹ |
| C4LB83 (antibody, V domains shown, IgG2sigma) VH: QVQLVQSGAEVKKPGSSVKVSCKASGGTFSSYAISWVRQAPGQGLEWMGWIIPIFGNTNYAQKFQGRVTITADESTSTAYMELSSLRSEDTAVYYCAREKDFRGYTKLDYWGQGTLVTVSS VL: DIQMTQSPSSLSASVGDRVTITCRASQSINNWLNWYQQKPGKAPKLLIYAASSLQSGVPSRFSGSGSGTDFTLTISSLQPEDFATYYCQQSFSFPYTFGQGTKVEIK |  |  |  |  |  | Kd [4]: 2.23 nM; koff [4]: 0.0047 s⁻¹; kon [4]: 2.1e+06 M⁻¹ s⁻¹ |
| C4LB119 (antibody, V domains shown, IgG2sigma) VH: QVQLVQSGAEVKKPGSSVKVSCKASGGTFSSYYISWVRQAPGQGLEWMGAIDPYFGYANYAQKFQGRVTITADESTSTAYMELSSLRSEDTAVYYCARTGLNYGGFDYWGQGTLVTVSS VL: EIVLTQSPATLSLSPGERATLSCRASQSVSSYLAWYQQKPGQAPRLLIYDASNRATGIPARFSGSGSGTDFTLTISSLEPEDFAVYYCQQRSNWPLTFGQGTKVEIK |  |  |  |  |  | Kd [4]: 4.79 nM; koff [4]: 0.0088 s⁻¹; kon [4]: 1.84e+06 M⁻¹ s⁻¹ |
| C4LB189 (antibody, V domains shown, IgG2sigma effector silent mAb; lambda VL; also called VH C4LH240; VL C4LL116) VH: QVQLVQSGAEVKKPGASVKVSCKASGYTFAAYYIHWVRQAPGQGLEWMGRINPDSGGTDYAQRFQGRVTMTRDTSISTAYMELSRLRSDDTAVFYCARDWNYYDGSGYFGPGYYGLDVWGQGTTVTVSS VL: SYELTQPPSVSVSPGQTASVTCSGDKLGDKYVCWYQRKPGQSPVLVIYQDRKRPSGIPERFSGSNSGNTATLTISGTQAIDEADYYCQAWDSGTVVFGRGTKLTVL | 0.581 nM | 0.000206 s⁻¹ | 355000 M⁻¹ s⁻¹ | 1.63 nM | 2.06 nM |  |
| C4LB191 (antibody, V domains shown, IgG2sigma effector silent mAb; lambda VL; also called VH C4LH242; VL IAPL39) VH: QVQLVQSGAEVKKPGASMKVSCKASGYTFTDYYIHWVRQAPGQGLEWVGRFNPNSGDTNGAQKFQGRVTMTRDTSISTAYMELTRLRSDDTAVYHCAREGELAGIFFDYWGQGTLVTVSS VL: SYELTQPPSVSVSPGQTASITCSGDKLGDKYVSWNHQKPGQSPVLVIYQDRKRPSGIPERFSGSNSGNTATLTISGTQAMDEADYYCQAWDSSTVVFGGGTKLTVL | 0.0313 nM | 0.000176 s⁻¹ | 5.62e+06 M⁻¹ s⁻¹ |  |  |  |
| C4LB150 (antibody, V domains shown, IgG2sigma effector silent mAb; lambda VL (OmniRat antibodies were cloned as IgG2sigma/lambda); also called VH C4LH201; VL C4LL82) VH: QLQLQESGPGLVKPSETLSLTCTVSGGSISSYSFYWGWIRQPPGQGLEWIGSLYYSGSTYYNPSLKSRATMSVVTSKTQFSLNLNSVTAADTAVYYCARLQLGTTTDYFDHWGQGTLVTVSS VL: SYELTQPPSVSVSPGQTASITCSGDELGDKFACWYQQKPGQSPVLVIWQENKRPSGIPERFSGSNSGNTATLTISGTQAMDEADYYCQAWDSDTAVFGGGTKLTVL |  |  |  | 4.95 nM | 3.57 nM | Kd [7]: 2.72 nM; koff [7]: 0.00617 s⁻¹; kon [7]: 2.27e+06 M⁻¹ s⁻¹ |
| C4LB199 (antibody, V domains shown, IgG2sigma effector silent mAb; lambda VL; also called VH C4LH250; VL C4LL125) VH: QVQLQESGPGLVKPSETLSLTCTVSGDSISSFIYYWGWIRQPPGKGLDWVGCIYSSGGTYYNPSLKSRVTISVDTSKNQFSLKLPSVTAADTAVYYCARLWLGTTTDYFDYWGQGTLVTVSS VL: SYELTQPPSVSVSPGQTVSITCSGDKLGDKFACWYQQKPGQSPVVVIYQDDKRPSGIPERFSGSTSGNTATLTISGTQAMDEADYYCQAWDSNTVVFGGGTKLTVL | 0.253 nM | 0.000404 s⁻¹ | 1.6e+06 M⁻¹ s⁻¹ | 1.09 nM | 1.21 nM |  |
| C4LB5 (antibody, V domains shown, Phage-derived; IgG2sigma effector silent mAb (V234A, G237A, P238S, H268A, V309L, A330S, P331S), kappa; also called VH C4LH12; VL C4LL8) VH: QVQLVQSGAEVKKPGSSVKVSCKASGGTFSSYAISWVRQAPGQGLEWMGGIIPIFGTANYAQKFQGRVTITADESTSTAYMELSSLRSEDTAVYYCARGASVWDGPAEVFDYWGQGTLVTVSS VL: not shown | 0.312 nM | 0.000178 s⁻¹ | 570000 M⁻¹ s⁻¹ | 0.54 nM | 1.55 nM | B cell activation assay; IC50 (nM); shCD154-ILZ/cyno B cell [8]: 5.35 nM; B cell activation assay; IC50 (nM); shCD154-ILZ/human B cells [8]: 2.74 nM |
| C4LB94 (antibody, V domains shown, IgG2sigma, kappa; also called VH C4LH99; VL PH9L2) VH: QVQLVQSGAEVKKPGSSVKVSCKASGGTFSSYAISWVRQAPGQGLEWMGGISPYFGNTNYAQKFQGRVTITADESTSTAYMELSSLRSEDTAVYYCARDTGWVGAFYLDYWGQGTLVTVSS VL: not shown |  |  |  | 4.37 nM | 0.13 nM | Kd [7]: 2.09 nM; koff [7]: 0.00329 s⁻¹; kon [7]: 1.58e+06 M⁻¹ s⁻¹ |
